This is an account of results in patent US20040059519A1.

Values joined by “and” are separate entries in the source; they are usually repeats but may differ in a detail not shown here. Equal entries are not always repeated.

For test [1], the target named is Alpha fetoprotein (UniProt P02771). Briefly: multiplex no-wash sandwich, S10473 beads; Unknown serum, AFP computed 39.59 U/mL.
Test [2] shares this target. Briefly: multiplex sandwich, S10473 capture beads; AFP 250 ng/mL, no wash.
The target is the same in test [3]. The experiment in a line: multiplex sandwich, S10473 capture beads; AFP 1 ng/mL, no wash.
The target is the same in test [4]. The experiment in a line: anti-AFP capture beads, flow cytometry; AFP 0.0 ng/mL, anti-AFP probe. (In flow cytometry, cells or beads pass a laser one at a time.)
For test [5] the target is unchanged. Briefly: multiplex no-wash sandwich, S10473 beads; serum Level 1, AFP 10.7 U/mL.
Test [6] has the same target. The experiment in a line: multiplex sandwich, S10473 capture beads; AFP 500 ng/mL, washed.
Test [7] has the same target. The experiment in a line: multiplex sandwich, S10473 capture beads; AFP 0 ng/mL, washed.
The target is the same in test [8]. Briefly: multiplex no-wash sandwich, S10473 beads; serum Level 3D, AFP 111.5 U/mL.
Test [9] has the same target. The experiment in a line: multiplex sandwich, S10473 capture beads; AFP 125 ng/mL, no wash.
Test [10] shares this target. The experiment in a line: multiplex sandwich, S10473 capture beads; AFP 0.25 ng/mL, washed.
Test [11] concerns the target Human chorionic gonadotropin (human) (UniProt P01215). The experiment in a line: MAB602 capture beads, flow cytometry; hCG 1.0 ng/mL, anti-AFP probe.
Chain of UniProt P01215 (P01215 25-116, chain 1 of 2, other chains not shown): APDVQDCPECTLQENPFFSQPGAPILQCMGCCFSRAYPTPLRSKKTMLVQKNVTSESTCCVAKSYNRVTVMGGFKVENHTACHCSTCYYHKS
For test [12], the target named is Alpha fetoprotein (UniProt P02771). Briefly: anti-AFP capture beads, flow cytometry; AFP 0.1 ng/mL, anti-AFP probe.
Test [13] addresses Neutravidin (deglycosylated avidin) (UniProt P02701). The experiment in a line: multiplex, Neutravidin bead 40/70 without peptide, flow cytometry.
Chain of UniProt P02701 (P02701 25-152 limits assumed): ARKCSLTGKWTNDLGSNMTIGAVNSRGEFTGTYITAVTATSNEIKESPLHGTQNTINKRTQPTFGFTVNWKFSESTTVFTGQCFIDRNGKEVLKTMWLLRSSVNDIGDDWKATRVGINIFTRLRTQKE
For test [14] the target is unchanged. Briefly: single-analyte, Neutravidin bead 70/70 without peptide, flow cytometry.
For test [15] the target is unchanged. The experiment in a line: single-analyte, Neutravidin bead 70/40 without peptide, flow cytometry.
Test [16] concerns the target Peptide 8 …-biotin. Briefly: multiplex peptide beads, flow cytometry; beads pre-incubated with free biotin 10 ug/mL.
Test [17] concerns the target Peptide 4 …-biotin. The test is described as above.
Test [18] addresses Peptide 3 …-biotin. The test is described as above.
The target in test [19] is Peptide 2 …-biotin. The description is as above.
For test [20], the target named is Neutravidin (deglycosylated avidin) (UniProt P02701). The experiment in a line: multiplex, Neutravidin bead 40/60 without peptide, flow cytometry.
For test [21], the target named is Peptide 8 …-biotin. Briefly: multiplex peptide beads, flow cytometry; antibody pre-mixed with soluble HYGSLPQK 10 ug/mL (competitor m18).
For test [22], the target named is Peptide 4 …-biotin. The description is as above.
Test [23] deals with Peptide 3 …-biotin. Described as above.
Test [24] has as its target Peptide 2 …-biotin. Described as above.
Another test deals with Peptide 7 …-biotin. The test is described as above.
A further test deals with Peptide 9 …-biotin. The description is as above.
Another test deals with Peptide 1 …-biotin. Described as above.
A further test has as its target Peptide 6 …-biotin. Described as above.
Test [25] deals with Peptide 5 …-biotin (human). Described as above.
In test [26] the target is Human chorionic gonadotropin (human) (UniProt P01215). The experiment in a line: sandwich, MAB602 capture beads, flow cytometry; hCG 20000 ng/mL.
Test [27] has the same target. Briefly: multiplex sandwich, MAB602 capture beads; hCG 125 ng/mL, washed.
Test [28] has as its target Alpha fetoprotein (UniProt P02771). The experiment in a line: anti-AFP capture beads, flow cytometry; AFP 100.0 ng/mL, anti-hCG probe.
The target is the same in test [29]. Briefly: MAB602 capture beads, flow cytometry; AFP 0.1 ng/mL, anti-hCG probe.
The target of test [30] is Human chorionic gonadotropin (human) (UniProt P01215). Briefly: multiplex sandwich, MAB602 capture beads; hCG 62 ng/mL, washed.
Test [31] shares this target. The experiment in a line: sandwich, MAB602 capture beads, flow cytometry; hCG 20 ng/mL.
The target is the same in test [32]. Briefly: multiplex sandwich, MAB602 capture beads; hCG 0.5 ng/mL, no wash.
Test [33] has the same target. The experiment in a line: multiplex sandwich, MAB602 capture beads; hCG 8 ng/mL, no wash.
Test [34] shares this target. The experiment in a line: MAB602 capture beads, flow cytometry; hCG 0.0 ng/mL, anti-hCG probe.
For test [35] the target is unchanged. Briefly: MAB602 capture beads, flow cytometry; hCG 10.0 ng/mL, anti-hCG probe.
Test [36] has the same target. The experiment in a line: multiplex sandwich, MAB602 capture beads; hCG 4 ng/mL, washed.
Test [37] has the same target. The experiment in a line: bead sandwich, flow cytometry; capture A2 (MAB 602) beads, hCG 20.0 ug/mL.

Chain of UniProt P02771 (P02771 19-609 limits assumed): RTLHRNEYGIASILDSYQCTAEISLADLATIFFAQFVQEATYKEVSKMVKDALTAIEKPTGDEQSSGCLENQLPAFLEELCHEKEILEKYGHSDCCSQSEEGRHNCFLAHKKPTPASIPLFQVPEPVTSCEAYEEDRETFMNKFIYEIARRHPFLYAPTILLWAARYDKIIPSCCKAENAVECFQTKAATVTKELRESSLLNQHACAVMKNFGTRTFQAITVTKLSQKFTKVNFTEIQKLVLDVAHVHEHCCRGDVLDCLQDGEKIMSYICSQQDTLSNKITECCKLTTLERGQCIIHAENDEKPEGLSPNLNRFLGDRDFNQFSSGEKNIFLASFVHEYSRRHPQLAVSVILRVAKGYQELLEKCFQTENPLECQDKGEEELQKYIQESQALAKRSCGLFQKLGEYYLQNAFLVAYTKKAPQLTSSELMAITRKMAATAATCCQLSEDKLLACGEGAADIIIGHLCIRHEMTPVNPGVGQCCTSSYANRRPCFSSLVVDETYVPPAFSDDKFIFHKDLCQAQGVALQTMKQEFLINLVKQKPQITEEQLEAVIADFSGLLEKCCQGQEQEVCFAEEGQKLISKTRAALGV

Turning to “M20077 affinity purified polyclonal anti-AFP antibody, Bodipy FL-CASE labeled”, the figures for the MIF AVG with Alpha fetoprotein [1], with Alpha fetoprotein [5] and with Alpha fetoprotein [8] were 276, 78 and 552, respectively. Also, the MIF of FL1 is 268 and 274 and 286 with Alpha fetoprotein [1]; 74 and 83 and 77 with Alpha fetoprotein [5]; 535 and 562 and 559 in the test with Alpha fetoprotein [8]. Moreover, the MIF of Fm is 956 with Alpha fetoprotein [2]; 33 with Alpha fetoprotein [3]; 45 in the test with Alpha fetoprotein [4]; 1380 in the test with Alpha fetoprotein [6]; 13 with Alpha fetoprotein [7]; 1060 in the test with Alpha fetoprotein [9]. In addition, the MIF of Fm came to 24 with Alpha fetoprotein [10], 48 in test [11] and 44 with Alpha fetoprotein [12].
In the case of MAB 384, Bodipy FL-X labeled (antibody), the MIF of Fm in test [13] was 34; in test [14], 66; in [15], 60; in test [20] it was 26; in the test with Peptide 8 …-biotin [21] it was 9; with Peptide 4 …-biotin [22] it was 13. For the same substance, the MIF of Fm with Peptide 3 …-biotin [23] was 12; with Peptide 2 …-biotin [24] it was 7; with Peptide 7 …-biotin, 11; in the test with Peptide 9 …-biotin it was 17; with Peptide 1 …-biotin it was 4; with Peptide 6 …-biotin, 15. Further, the MIF of Fm in [25] is 53. Further, the MIF with Peptide 8 …-biotin [16] was 34; with Peptide 4 …-biotin [17] it was 26; in the test with Peptide 3 …-biotin [18], 22; in the test with Peptide 2 …-biotin [19] it was 19.
In the case of “AB633 affinity purified polyclonal anti-hCG antibody, Bodipy FL-CASE labeled”, the MIF of Fm in test [26] was 9340 and 9220; in test [27] it was 2950; with Alpha fetoprotein [28] it was 75; in the test with Alpha fetoprotein [29], 52; in test [30], 3200; in [31], 8500 and 8660. Moreover, the MIF of Fm in test [32] amounted to 166; in test [33] it was 1760; in test [34], 48; in test [35], 530; in [36], 1300; in test [37] it was 9440.
